# Measured values: patent US10654896B2, “FoxP3-binding peptides and uses thereof” (FUNDACIÓN PARA LA INVESTIGACIÓN MÉDICA APLICADA, priority 2016, dated 2020)
# Where a SMILES comes first, the peptide text is derived from it. Where no end group is shown, it is not given here. [ ]: non-standard residue; d: D form.
# Biological target: T1, human FOXP3 (FOXP3-6His) (Homo sapiens, UniProt Q9BZS1)
# T1 construct: 6xHis (C); made in house; host or cells: E. coli BL21 (DE3)
# T1 sequence (Q9BZS1 1-431): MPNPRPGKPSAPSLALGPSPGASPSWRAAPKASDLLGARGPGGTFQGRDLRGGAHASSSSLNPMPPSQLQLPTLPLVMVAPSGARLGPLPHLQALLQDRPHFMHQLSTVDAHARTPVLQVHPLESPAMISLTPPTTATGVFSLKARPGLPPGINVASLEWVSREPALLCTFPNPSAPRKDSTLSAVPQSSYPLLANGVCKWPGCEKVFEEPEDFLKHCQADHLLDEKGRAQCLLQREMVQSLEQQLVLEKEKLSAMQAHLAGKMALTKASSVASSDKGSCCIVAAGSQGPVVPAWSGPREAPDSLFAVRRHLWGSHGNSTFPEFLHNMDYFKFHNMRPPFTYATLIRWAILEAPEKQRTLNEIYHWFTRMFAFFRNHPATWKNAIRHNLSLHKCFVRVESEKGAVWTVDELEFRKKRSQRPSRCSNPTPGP
# Experiment: Peptide binding to FOXP3 by surface plasmon resonance (SPR)
# Conditions: not given
# Excerpt: Plasmid pET20b FOXP3-His was generated to produce the human FOXP3 tagged with 6 histidines at the C terminus of the protein. Briefly, plasmid pDEST15-FOXP3 (provided by Dr. Casal, Madrid, Spain) was used as template to amplify FOXP3 by PCR using the primers Upper FOXP3 Ndel catatgcccaaccccaggc (SEQ ID NO: 55) and Lower FOXP3 […] (SEQ ID NO: 56). The resulting fragment was subcloned in pET20b at Ndel and NotI sites. pET45b His-Runx1 was obtained by PCR of activated human CD4 T cells obtained from healthy volunteers (after the signature of an informed consent) using the primers Upper Runx1 atgcgtatccccgtagatg (SEQ ID NO: 57) and Lower Runx1 […] (SEQ ID NO: 58) and the fragment was cloned in pcDNA3.1. Then, pET45b and pcDNA3.1-Runx1 were digested with BamHI and NotI and ligated to obtain pET45b-Runx1. Plasmids were used to transform BL21 cells (DE3; Novagen, Schwalbach, Germany) for the expression of the recombinant protein. The transformed BL21 cells were grown in LB medium at 37° C. (1 liter of final culture medium) (with ampicilin 0.1 mg/ml). Once the OD of the culture was between 0.5 and 1.0, IPTG (0.4 mM, final concentration) was added. Bacteria were then cultured overnight in agitation and centrifuged for 10 min at 8000 rpm. Cell pellet was then resuspended in 4 ml Tris-HCl 0.1 M and frozen at −80° C. Cell pellet was then thawed and incubated with lisozyme (25 KU) and a protease inhibitor cocktail for 15 min at 30° C. before cell lysis induced with a French-press. The resultant pool was then centrifuged during 20 min at 11.000 rpm). The recombinant protein was purified from the soluble fraction of French-press cell extracts by affinity chromatography (Histrap, Pharmacia) following manufacturer's instructions and using an FPLC platform (AKTA, Pharmacia). Plasmid pDEST15-FOXP3 encoding the fusion protein GST-FOXP3 (GST fused to the isoform A from human FOXP3 gene), was transformed into BL21 cells for the expression of the recombinant protein. GST-FOXP3 protein was purified from the soluble fraction of cell extracts obtained, as described above, by affinity chromatography (GSTrap; Amersham, Piscataway, N.J.) using a fast protein liquid chromatography platform (AKTA; Amersham) following manufacturer's instructions. The eluted proteins were desalted using Hitrap desalting columns (Pharmacia) and analyzed by SDS-PAGE using Coomassie blue (Bio-Safe Coomassie reagent; Bio-Rad, Hercules, Calif.) and by Western blot.
# Screening of peptide binding to FOXP3 was performed by surface plasmon resonance (SPR) using ProteOn XPR36 (Bio-Rad, Hercules Calif., USA) optical biosensor. Recombinant protein FOXP3-6His was produced and purified from E. coli as disclosed in previous section and was immobilized covalently onto a GLM sensor chip (176-5012, Bio-Rad) using sulfo-NHS and EDC (Bio-Rad) coupling reagents and the manufacturer's instructions. After protein immobilization, chip surface was treated with ethanolamine to deactivate the excess of reactive esters.
# Individual solutions of the peptides to be tested (1-20 μM) were injected by triplicate in running buffer (Phosphate buffered saline, 0.005% (v/v) Tween 20, pH 7.4) at a flow of 30 μl/min. The interspot signal (obtained in the chip surface not immobilized with protein) was used as reference. The results are summarized in Table 6 below as the ratio Peptide of the invention/p60.
row,Molecule,increase in the binding to FoxP3 with respect to p60 (SEQ ID NO: 1)
1,RAFQAFRKMWPFFAM [SEQ ID NO: 42] (H-RAFQAFRKMWPFFAM-OH),about 400%
2,"RDFQSFRKMWPFFAM (cyclo(RDFQSFRKMWPFFAM); also: R1 and R2 form a linker birradical which is -C(=O)-) [SEQ ID NO: 49, head-to-tail cyclic peptide]",about 500%

# Same assay, conditions: peptides 1-20 μM; ratio to p60 (SEQ ID NO: 1)
row,Molecule,Binding to Foxp3 Ratio binding Peptide/p60 (fold change)
1,24 (RDFQYFRKMWPFFAM) [compound 24],4.6 fold change
2,7 (RSFQSFRKMWPFFAM) [compound 7],1.4 fold change
3,6 (R[dA]FQSFRKMWPFFAM) [compound 6],3.3 fold change
4,35 (RDFQSFRKMWYFFAM) [compound 35],1.3 fold change
5,32 (RDFQSFRKMWNFFAM) [compound 32],1.4 fold change
6,38 (RDFQSFRKMWAFFA[dM]-NH2; not fully specified (N-terminus)) [compound 38],1.1 fold change
7,18 (RDLQSFRKMWPFFAM) [compound 18],1.9 fold change
8,8 (RYFQSFRKMWPFFAM) [compound 8],1.4 fold change
9,43 (R[dA]FQ[dA]FRKMWPFFAM-NH2; not fully specified (N-terminus)) [compound 43],4.9 fold change
10,44 (RAFQSFRKMWAFFAM-NH2; not fully specified (N-terminus)) [compound 44],3.0 fold change
11,21 (RDFQNFRKMWPFFAM) [compound 21],3.2 fold change
12,29 (RDFQSFRRMWPFFAM) [compound 29],1.4 fold change
13,12 (RKFQSFRKMWPFFAM) [compound 12],2.2 fold change
14,42 (H-RAFQAFRKMWPFFAM-OH) [compound 42],4.1 fold change
15,20 (RDFQRFRKMWPFFAM) [compound 20],3.7 fold change
16,31 (RDFQSFRKMWRFFAM) [compound 31],2.8 fold change
17,39 (RDFQ[dA]FRKMWPFFAM-NH2; not fully specified (N-terminus)) [compound 39],3.3 fold change
18,49 (cyclo(RDFQSFRKMWPFFAM); also: R1 and R2 form a linker birradical which is -C(=O)-) [compound 49],5.0 fold change
19,37 (RDFQSFRKMWKFFAM) [compound 37],4.1 fold change
20,23 (RDFQEFRKMWPFFAM) [compound 23],1.3 fold change
21,28 (RDFQSFRHMWPFFAM) [compound 28],2.6 fold change
22,11 (RNFQSFRKMWPFFAM) [compound 11],1.4 fold change
23,16 (RDWQSFRKMWPFFAM) [compound 16],3.7 fold change
24,Ac-GRAFQSFRKMWPFFAM-NH2 (C-terminus assumed) [compound 13],3.2 fold change
25,25 (RDFQKFRKMWPFFAM) [compound 25],4.0 fold change
26,22 (RDFQWFRKMWPFFAM) [compound 22],2.4 fold change
27,CSCC[C@H](NC(=O)[C@H](C)NC(=O)[C@H](Cc1ccccc1)NC(=O)[C@H](Cc1ccccc1)NC(=O)[C@@H]1CCCN1C(=O)[C@H](Cc1c[nH]c2ccccc12)NC(=O)[C@H](CCSC)NC(=O)[C@H](CCCCN)NC(=O)[C@H](CCCNC(=N)N)NC(=O)[C@H](Cc1ccccc1)NC(=O)[C@H](CO)NC(=O)[C@H](CCC(N)=O)NC(=O)[C@H](Cc1ccccc1)NC(=O)[C@@H](CC(=O)O)NC(=O)[C@H](CCCNC(=N)N)NC(=O)CNC(C)=O)C(N)=O [compound 4] (Ac-GR[dD]FQSFRKMWPFFAM-NH2; C-terminus assumed),4.2 fold change
28,40 (RDFQSFRKMW[dA]FFAM-NH2; not fully specified (N-terminus)) [compound 40],2.2 fold change
29,33 (RDFQSFRKMWVFFAM) [compound 33],1.3 fold change
30,17 (RDYQSFRKMWPFFAM) [compound 17],3.3 fold change

# Tested on: not listed separately
# Experiment: Human liver microsomal stability
# Type: in vitro ADME
# Conditions: human liver microsomes, 20 min; read-out: % Remaining after 20 min
# Method: (§1) The data collected were analyzed to calculate a half-life (t1/2, min) for tested peptides at a final concentration of 1 μM. Briefly, 5 μL of stock solution of tested peptide (10 mM) were diluted in 495 μL of 1:1 Methanol/Water (final concentration of 100 μM, 50% MeOH). Then, 50 μL of this intermediate solution were diluted in 450 μL of 100 mM potassium phosphate buffer to a concentration of 10 μM (working solution, 5% MeOH). The NADPH regenerating system contains β-Nicotinamide adenine dinucleotide phosphate (Sigma, Cat. # N0505), Isocitric acid (Sigma, Cat. #11252) and Isocitric dehydrogenase (Sigma, Cat. #12002) at a final concentration of 1 unit/mL at incubation.
# (§2) Human liver microsomes were obtained from BD Gentest (Cat. #452117) and mouse liver microsomes from Xenotech (Cat. # M1000), to a final concentration of 0.7 mg protein/mL. A volume of 10 μL of peptide solution and 80 μL of microsome solution were added to a 96-well plate and incubated for 10 min at 37° C. The reaction was started by the addition of 10 μL of NADPH regenerating system and stopped by the addition of 300 μL of stop solution (ACN at 4° C., including 100 ng/mL Tolbutamide and 100 ng/mL of Labetalol as internal standard) at different incubation times (0, 5, 10, 20, 30 and 60 min). Concentrations of test compound were quantified by LC-MS/MS methodologies (Shimadzu LC 20-AD/API4000) using peak area ratio of analyte/internal standard and the percent loss of parent compound was calculated under each time point to determine the half-life.
row,Molecule,"remaining at 20 min, 1 μM"
1,CSCC[C@@H]1NC(=O)[C@H](C)NC(=O)[C@H](Cc2ccccc2)NC(=O)[C@H](Cc2ccccc2)NC(=O)[C@@H]2CCCN2C(=O)[C@H](Cc2c[nH]c3ccccc23)NC(=O)[C@H](CCSC)NC(=O)[C@H](CCCCN)NC(=O)[C@H](CCCNC(=N)N)NC(=O)[C@H](Cc2ccccc2)NC(=O)[C@H](C)NC(=O)[C@H](CCC(N)=O)NC(=O)[C@H](Cc2ccccc2)NC(=O)[C@@H](C)NC(=O)[C@H](CCCNC(=N)N)NCCCNC1=O [compound 52],76.9%

# Same assay, conditions: human liver microsomes, 60 min; read-out: % Remaining after 60 min
row,Molecule,"remaining at 1 h, 1 μM"
1,CSCC[C@@H]1NC(=O)[C@H](C)NC(=O)[C@H](Cc2ccccc2)NC(=O)[C@H](Cc2ccccc2)NC(=O)[C@@H]2CCCN2C(=O)[C@H](Cc2c[nH]c3ccccc23)NC(=O)[C@H](CCSC)NC(=O)[C@H](CCCCN)NC(=O)[C@H](CCCNC(=N)N)NC(=O)[C@H](Cc2ccccc2)NC(=O)[C@H](C)NC(=O)[C@H](CCC(N)=O)NC(=O)[C@H](Cc2ccccc2)NC(=O)[C@@H](C)NC(=O)[C@H](CCCNC(=N)N)NCCCNC1=O [compound 52],40.1%

# Same assay, conditions: human liver microsomes, peptide 1 μM; read-out: t1/2
row,Molecule,half-life
1,CSCC[C@@H]1NC(=O)[C@H](C)NC(=O)[C@H](Cc2ccccc2)NC(=O)[C@H](Cc2ccccc2)NC(=O)[C@@H]2CCCN2C(=O)[C@H](Cc2c[nH]c3ccccc23)NC(=O)[C@H](CCSC)NC(=O)[C@H](CCCCN)NC(=O)[C@H](CCCNC(=N)N)NC(=O)[C@H](Cc2ccccc2)NC(=O)[C@H](C)NC(=O)[C@H](CCC(N)=O)NC(=O)[C@H](Cc2ccccc2)NC(=O)[C@@H](C)NC(=O)[C@H](CCCNC(=N)N)NCCCNC1=O [compound 52],41.4 min

# Tested on: not listed separately
# Experiment: Mouse liver microsomal stability
# Type: in vitro ADME
# Conditions: mouse liver microsomes, 20 min; read-out: % Remaining after 20 min
# Method: as §1, §2
row,Molecule,"remaining at 20 min, 1 μM"
1,CSCC[C@@H]1NC(=O)[C@H](C)NC(=O)[C@H](Cc2ccccc2)NC(=O)[C@H](Cc2ccccc2)NC(=O)[C@@H]2CCCN2C(=O)[C@H](Cc2c[nH]c3ccccc23)NC(=O)[C@H](CCSC)NC(=O)[C@H](CCCCN)NC(=O)[C@H](CCCNC(=N)N)NC(=O)[C@H](Cc2ccccc2)NC(=O)[C@H](C)NC(=O)[C@H](CCC(N)=O)NC(=O)[C@H](Cc2ccccc2)NC(=O)[C@@H](C)NC(=O)[C@H](CCCNC(=N)N)NCCCNC1=O [compound 52],98.9%

# Same assay, conditions: mouse liver microsomes, 60 min; read-out: % Remaining after 60 min
row,Molecule,"remaining at 1 h, 1 μM"
1,CSCC[C@@H]1NC(=O)[C@H](C)NC(=O)[C@H](Cc2ccccc2)NC(=O)[C@H](Cc2ccccc2)NC(=O)[C@@H]2CCCN2C(=O)[C@H](Cc2c[nH]c3ccccc23)NC(=O)[C@H](CCSC)NC(=O)[C@H](CCCCN)NC(=O)[C@H](CCCNC(=N)N)NC(=O)[C@H](Cc2ccccc2)NC(=O)[C@H](C)NC(=O)[C@H](CCC(N)=O)NC(=O)[C@H](Cc2ccccc2)NC(=O)[C@@H](C)NC(=O)[C@H](CCCNC(=N)N)NCCCNC1=O [compound 52],48%

# Same assay, conditions: mouse liver microsomes, peptide 1 μM
row,Molecule,half-life
1,CSCC[C@@H]1NC(=O)[C@H](C)NC(=O)[C@H](Cc2ccccc2)NC(=O)[C@H](Cc2ccccc2)NC(=O)[C@@H]2CCCN2C(=O)[C@H](Cc2c[nH]c3ccccc23)NC(=O)[C@H](CCSC)NC(=O)[C@H](CCCCN)NC(=O)[C@H](CCCNC(=N)N)NC(=O)[C@H](Cc2ccccc2)NC(=O)[C@H](C)NC(=O)[C@H](CCC(N)=O)NC(=O)[C@H](Cc2ccccc2)NC(=O)[C@@H](C)NC(=O)[C@H](CCCNC(=N)N)NCCCNC1=O [compound 52],46.9 min
